Data: paper PMC3585378 (PLoS ONE, 2013)

B1: His6-OspG (natural protein)
chain: MKITSTIIQTPFPFENNNSHAGIVTEPILGKLIGQGSTAEIFEDVNDSSALYKKYDLIGNQYNEILEMAWQESELFNAFYGDEASVVIQYGGDVYLRMLRVPGTPLSDIDTADIPDNIESLYLQLICKLNELSIIHYDLNTGNMLYDKESESLFPIDFRNIYAEYYAATKKDKEIIDRRLQMRTNDFYSLLNRKYL
notes: source: E. coli BL21 (DE3), purified (Ni-NTA)
B2: GST-tagged OspG protein (GST-OspG) (natural protein)
chain: B1 chain
notes: source: E. coli BL21 (DE3), purified (glutathione-Sepharose)

Assays:
GST-ubiquitin = molecular target: T1, GST-ubiquitin (UniProt P0CG48 1-76); test: pull-down; settings: both partners purified
T1 construct: also called GST-tagged ubiquitin

His6-ubiquitin = His6-ubiquitin (UniProt P0CG48 1-76); test: pull-down; settings: both partners purified

Row | Binder | binding result (GST-ubiquitin) | binding result (His6-ubiquitin)
1 | B1 | binds | 
2 | B2 |  | binds
